Key:
[1] = cycloheximide chase immunoblot, MKN28; conditions: glycan lost; control: KIAA1324 WT
[2] = immunofluorescence, cell surface level, MKN28; conditions: glycan lost; control: KIAA1324 WT

B1: KIAA1324 (ELAPOR1, inceptor): 3NQ (protein)
parent chain: MAEPGHSHHLSARVRGRTERRIPRLWRLLLWAGTAFQVTQGTGPELHACKESEYHYEYTACDSTGSRWRVAVPHTPGLCTSLPDPIKGTECSFSCNAGEFLDMKDQSCKPCAEGRYSLGTGIRFDEWDELPHGFASLSANMELDDSAAESTGNCTSSKWVPRGDYIASNTDECTATLMYAVNLKQSGTVNFEYYYPDSSIIFEFFVQNDQCQPNADDSRWMKTTEKGWEFHSVELNRGNNVLYWRTTAFSVWTKVPKPVLVRNIAITGVAYTSECFPCKPGTYADKQGSSFCKLCPANSYSNKGETSCHQCDPDKYSEKGSSSCNVRPACTDKDYFYTHTACDANGETQLMYKWAKPKICSEDLEGAVKLPASGVKTHCPPCNPGFFKTNNSTCQPCPYGSYSNGSDCTRCPAGTEPAVGFEYKWWNTLPTNMETTVLSGINFEYKGMTGWEVAGDHIYTAAGASDNDFMILTLVVPGFRPPQSVMADTENKEVARITFVFETLCSVNCELYFMVGVNSRTNTPVETWKGSKGKQSYTYIIEENTTTSFTWAFQRTTFHEASRKYTNDVAKIYSINVTNVMNGVASYCRPCALEASDVGSSCTSCPAGYYIDRDSGTCHSCPTNTILKAHQPYGVQACVPCGPGTKNNKIHSLCYNDCTFSRNTPTRTFNYNFSALANTVTLAGGPSFTSKGLKYFHHFTLSLCGNQGRKMSVCTDNVTDLRIPEGESGFSKSITAYVCQAVIIPPEVTGYKAGVSSQPVSLADRLIGVTTDMTLDGITSPAELFHLESLGIPDVIFFYRSNDVTQSCSSGRSTTIRVRCSPQKTVPGSLLLPGTCSDGTCDGCNFHFLWESAAACPLCSVADYHAIVSSCVAGIQKTTYVWREPKLCSGGISLPEQRVTICKTIDFWLKVGISAGTCTAILLTVLTCYFWKKNQKLEYKYSKLVMNATLKDCDLPAADSCAIMEGEDVEDDLIFTSKKSLFGKIKSFTSKRTPDGFDSVPLKTSSGGLDMDL
degradation_or_half_life, other: protein level remaining at 2 h [1]: decreases
localisation_or_trafficking [2]: decreases
